{
  "source": "paper PMC10120478",
  "key": {"[1]": {"biological_target": "T1, MgrA C12S C12S (Staphylococcus aureus XN108 mgrAC12S mutant) (UniProt P0C1S0)", "T1 sequence": "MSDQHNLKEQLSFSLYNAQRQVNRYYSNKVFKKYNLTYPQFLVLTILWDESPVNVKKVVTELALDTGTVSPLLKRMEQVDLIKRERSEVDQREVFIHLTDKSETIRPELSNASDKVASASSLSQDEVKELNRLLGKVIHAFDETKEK", "assay": "EMSA", "settings": "EMSA: 20 mM Hepes pH 7.6, 1 mM EDTA, 10 mM (NH4)2SO4, 30 mM KCl, 1 mM DTT, 0.2% (w/v) Tween-20, 10 uL, room temperature 1 min; 4% native PAGE"}, "[2]": {"biological_target": "T2, MgrA (Staphylococcus aureus XN108) (UniProt P0C1S0)", "T2 sequence": "T1 sequence with S12C", "assay": "EMSA", "settings": "EMSA: 20 mM Hepes pH 7.6, 1 mM EDTA, 10 mM (NH4)2SO4, 30 mM KCl, 1 mM DTT, 0.2% (w/v) Tween-20, 10 uL, room temperature 1 min; 4% native PAGE"}},
  "note": "Substitutions are numbered along the chain they refer to.",
  "data": [
    {"sequence": "GTCACACTCCATGCCATTGAGTTGTAATATATCTTTTTTAGGTATAAATGTTGTCGAATAAACAACAAGTTGTCCAAAAGATATAAATCTAAACAAGATATAGCCAGCAATTTAATATTTGTAATAGATAAAATGCTAAGTTTGATATATAATAAATTTAAGTAATTGTATAATAATATGAATTACAAACATCTAAGAAGAAACATAGGAGGCATCA (double strand) [psarV (sarV promoter probe)]", "values": [
      {"measurement": "binding", "setting": "[1]", "result": "binds more weakly"},
      {"measurement": "binding", "setting": "[2]", "result": "binds"}
    ]},
    {"sequence": "GTTCGACATACCCAATGCCAAAAACATACCTATTGAAATTGACAAAATTCCAATACTAACTTTTCTAATTGAATAGCGTACTTTACTTTGTTGTTTATTCATGATGAAACACTCCTTACAATAATATACAAACATTATAACATAGTGCGCTATATATTTTAATTAAAATTTTCTTTGTTTTATAAAGCTATTGTAGGAGGTAAAATAATTAACTTGTCTTTCCAAAATATGAAAAGTGTACTAAAATTCATCGCACGACAAATAGCCCATTTCCGATACTT (double strand) [plytN (lytN promoter probe)]", "values": [
      {"measurement": "binding", "setting": "[1]", "result": "binds more weakly"},
      {"measurement": "binding", "setting": "[2]", "result": "binds"}
    ]}
  ]
}
